Assay results taken from patent publication US7033999B2, “Nitrosated and nitrosylated heme proteins” (Brigham and Women's Hospital, priority 1991, dated 2006).

Experiments:
[1] = system: endothelium-denuded rabbit aortic strips; experiment: Vessel relaxation bioassay; assay type: cell-based; details: for % Relaxation: 150 nM, contraction with 1 μM epinephrine, mean ±S.D., n=4
Protocol: New Zealand White female rabbits weighing 3–4 kg were anesthetized with 30 mg/kg IV sodium pentobarbital. Descending thoracic aortae were isolated and placed immediately in a cold physiologic salt solution (Kreb's) (mM): NaCl, 118; CKl, 4.7; CaCl2, 2.5; MgSO4, 1.2; KH2PO4, 1.2; NaHCO3, 12.5; and D-glucose, 11.0. The vessels were cleaned of adherent connective tissue, and the endothelium removed by gentle rubbing with a cotton tipped applicator inserted into the lumen, after which the vessel was cut into 5 mm rings. The rings were mounted on stirrups and connected to transducers (model FT03C Grass Instruments, Quincy, Mass.) by which changes in isometric tension were recorded.
Samples were added to a standard bioassay in which vessel rings were suspended in glass chambers containing seven mil of oxygenated Kreb's buffer, in a standard bioassay (Cook et al., Am. J. Physiol. 28:H804 (1989), herein incorporated by reference). Sustained contractions, to 2 gm tension, were induced with 1 μM epinephrine, after which the effects of t-PA and S—NO-t-PA were tested. In certain experiments the guanylate cyclase inhibitor, methylene blue, was preincubated with vessel rings for 15 minutes prior to initiation of contractions.
The vasodilatory actions of S-nitroso-BSA were examined in a standard bioassay containing endothelium-denuded rabbit aortic strips in Kreb's buffer, pH 7.5, at 37°, as described in Example 6.
In vessel experiments, relaxations to S—NO-BSA are expressed as-percent of tone induced by 1.0 μM norepinephrine.

gel-filtered platelets = experiment: Platelet aggregation (nephelometric aggregometry); assay type: cell-based, human; details: for % Normalized Extent Aggregation: Thrombin (0.024 U/ml), (150 μM) as printed, mean ±S.D.
glu-plasminogen = target: T1, glu-plasminogen (Homo sapiens, UniProt P00747); experiment: Coupled enzyme assay: activation of glu-plasminogen (S2251), with and without fibrinogen; assay type: biochemical; details: for Km / kcat: GLU-plasminogen (S2251) activation
T1 construct: Glu-plasminogen was purified from fresh frozen plasma; from tissue; host or cells: fresh frozen plasma (lysine-Sepharose, then benzamidine-Sepharose)
T1 sequence (P00747 20-810 limits assumed): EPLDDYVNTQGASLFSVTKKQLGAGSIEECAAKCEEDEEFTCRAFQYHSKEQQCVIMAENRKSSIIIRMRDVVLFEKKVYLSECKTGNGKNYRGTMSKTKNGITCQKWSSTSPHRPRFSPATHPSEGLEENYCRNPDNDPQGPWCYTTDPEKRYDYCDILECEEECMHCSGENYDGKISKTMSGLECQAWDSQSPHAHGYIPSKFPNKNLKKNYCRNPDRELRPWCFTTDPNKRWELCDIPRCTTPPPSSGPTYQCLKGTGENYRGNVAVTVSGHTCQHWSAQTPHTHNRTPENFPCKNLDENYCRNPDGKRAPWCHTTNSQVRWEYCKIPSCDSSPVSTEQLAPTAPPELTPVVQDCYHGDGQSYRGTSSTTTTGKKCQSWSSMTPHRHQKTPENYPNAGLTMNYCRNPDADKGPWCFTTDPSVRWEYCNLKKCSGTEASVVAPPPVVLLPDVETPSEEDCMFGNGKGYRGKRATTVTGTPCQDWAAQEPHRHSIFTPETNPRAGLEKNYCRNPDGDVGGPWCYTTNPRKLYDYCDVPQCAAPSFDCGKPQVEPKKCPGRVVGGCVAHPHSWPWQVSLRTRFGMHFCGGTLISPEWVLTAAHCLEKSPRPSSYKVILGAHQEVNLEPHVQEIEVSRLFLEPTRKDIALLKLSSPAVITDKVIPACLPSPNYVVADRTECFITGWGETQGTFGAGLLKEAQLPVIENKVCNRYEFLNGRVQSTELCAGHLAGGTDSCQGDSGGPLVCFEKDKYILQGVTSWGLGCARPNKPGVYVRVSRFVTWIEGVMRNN
Protocol: Glu-plasminogen was purified from fresh frozen plasma thawed at 37° C. using a modification of the method of Deutsch and Mertz (Deutsch et al., Science 170:1095–1096 (1970), herein incorporated by reference). Plasma was passed over a lysine-Sepharose column and the column washed with 0.3 M sodium phosphate, pH 7.4, 3 mM EDTA. Plasminogen was eluted from the column with 0.2 M epsilon-aminocaproic acid, 3 mM EDTA, pH 7.4 Contaminant plasmin was removed by passing the eluted column over benzamidine sepharose 2B. The plasminogen obtained was subsequently dialyzed before use against 10 mM sodium phosphate, pH 7.4, 0.15 M NaCl.
In the coupled enzyme assay, t-PA and S—NO-t-PA activities were assayed using the […] S2251. In selected experiments, fibrinogen stimulation of enzymatic activity was assessed at a fibrinogen concentrations of 1 mg./ml. Substrate hydrolysis was measured spectrophotometrically with a Dynatech MR 5000 Card Reader (Dynatech, Chantilly, Va.) in TBS, pH 7.4, at 25° C. Initial reaction velocity was determined from the slope of the plot of absorbance (at 405 nm)/time vs. time (Randy, M. Biochim. Biophysica Acta 704:461–469 (1982)) using glu-plasminogen concentrations ranging from 0.1–10 μM at an S2251 concentrations of 0.8 mM. Kinetic parameters were determined from initial rates by double reciprocal plot analysis.

[2] = Amidolytic activity against chromogenic substrate S2288; assay type: biochemical; details: S2288 hydrolysis; for Km: 25° C., TBS
Protocol: The amidolytic activities of t-PA and its S-nitrosylated derivative were measured using the relatively specific chromogenic substrate, S2288. Substrate hydrolysis was measured spectrophotometrically at 405 nm with a Gilford Response UV/Vis Spectrophotometer (CIBA-Corning, Oberlin, Ohio). Activity was measured at 25° C. in TBS using substrate concentrations varying from 0.1–2.0 mM and t-PA at a concentration of 100 nM. Kinetic parameters were determined from initial rates by double reciprocal plot analysis. The assessment of inhibition of t-PA and S—NO-t-PA enzymatic activity by PAI-1 was made at an enzyme concentration of 10 nM and a molar ratio of t-PA to active PAI-1 of 1.0. The degree of inhibition was determined relative to the initial rates in the absence of the inhibitor.

| relaxations in presence of guanylate cyclase inhibitor methylene blue ([1]; methylene blue preincubated 15 minutes) | fibrinogen stimulation greater than t-PA (glu-plasminogen; 0.1 μM plasminogen, fibrinogen 1 mg./ml) [fold] | degree of fibrinogen stimulation compared with wild type t-PA (glu-plasminogen; physiologic (1 μM) plasminogen) | Substance | % Relaxation [1] [%] | concentrations at which inhibition of platelet aggregation was demonstrable (gel-filtered platelets; ADP (5 μM) or thrombin (0.024 U/ml)) [nM] | % Normalized Extent Aggregation (gel-filtered platelets) [%] | Km (glu-plasminogen) [µM] | kcat (glu-plasminogen) [s⁻¹] | catalytic efficiency greater than that of native t-PA (glu-plasminogen; plasminogen activation) [%] | kcat [2] [s⁻¹] | Km [2] [µM] |
| --- | --- | --- | --- | --- | --- | --- | --- | --- | --- | --- | --- |
| attenuated | 3.5 | equivalent | S—NO-t-PA: derived from the nitrosylation of tissue-type plasminogen activator (t-PA) | 20 ± 7 | 15 to 150 | 0.73 ± 0.28 | 3.8 | 0.262 | 23 | 0.52 | 295 |
| – | – | – | t-PA: tissue-type plasminogen activator, provided by Genentech | 2.5 ± 4 | – | 0.90 ± 0.15 | 3.5 | 0.200 | – | 0.52 | 280 |
